In PMC3390401, “Phosphorylation-Dependent Interactions between Crb2 and Chk1 Are Essential for DNA Damage Checkpoint” (PLoS Genetics, 2012):
Non-standard residues stand in square brackets, D forms with d. No end group written: not given here. pS = N[C@@H](COP(=O)(O)O)C(=O)O

Columns and labels:
[1] = biological target: Chk1 (UniProt P34208); experiment: biotin-peptide streptavidin pull-down, Coomassie or immunoblot
[2] = biological target: Crb2(67–85)pT73pS80 peptide (S. pombe) (UniProt P87074); experiment: pull-down; Eluted Chk1-YFH incubated with 2 µg biotin-labeled peptide at 4°C for 2 h, peptides captured on streptavidin Dynabeads M-280, washed with lysis buffer (50 mM Hepes pH 7.5, 100 mM NaCl, 1 mM EDTA, 10% glycerol, 0.05% NP-40); eluates and input on 4%–20% SDS-PAGE, Coomassie staining
[3] = biological target: Crb2(67–85)pT73pS80 peptide (S. pombe) (UniProt P87074); experiment: pull-down; Same peptide pull-down repeated; eluates and serial dilutions of Chk1-YFH input examined by immunoblotting with an anti-GFP antibody
[4] = biological target: Crb2(67–85)pT73 peptide (S. pombe) (UniProt P87074); experiment: as above
[5] = biological target: Crb2(67–85) peptide, unphosphorylated (S. pombe) (UniProt P87074); experiment: as above
[6] = biological target: Crb2(67–85)pS80 peptide (S. pombe) (UniProt P87074); experiment: as above
[7] = biological target: T1, His-GST-Crb2(521–778) (S. pombe, UniProt P87074 521-778); experiment: pull-down; His-GST-Crb2(521–778) incubated with H2A peptides, peptides pulled down by streptavidin Dynabeads, eluted by boiling in SDS loading buffer; 4%–20% SDS-PAGE, Coomassie staining; settings: both partners purified
T1 construct: Crb2, S. pombe, residues 521-778 (the BRCT domains); also called BRCTs in Crb2; source: E. coli, purified with Ni-NTA beads; not shown: His, N-terminal, kept; GST, N-terminal, kept
T1 sequence (looked up): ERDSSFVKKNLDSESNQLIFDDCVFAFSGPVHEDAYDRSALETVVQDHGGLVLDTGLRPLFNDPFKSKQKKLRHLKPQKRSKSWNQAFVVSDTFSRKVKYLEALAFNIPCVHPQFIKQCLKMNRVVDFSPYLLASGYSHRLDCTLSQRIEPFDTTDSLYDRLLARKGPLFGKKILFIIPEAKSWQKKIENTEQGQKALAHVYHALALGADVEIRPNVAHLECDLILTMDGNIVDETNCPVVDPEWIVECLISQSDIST

## Crb2 67-85 (from UniProt P87074) pS80 peptide
[1]; reference: unphosphorylated peptide, sites S80
  other: share of Chk1 input pulled down: gained; reference lower than 0.08%

## Crb2 67-85 (from UniProt P87074) pT73 peptide
[1]; reference: unphosphorylated peptide, sites T73
  other: share of Chk1 input pulled down: gained; reference lower than 0.08%

## Crb2 67-85 (from UniProt P87074) pT73pS80 peptide
[1]; reference: pS80 peptide, sites T73
  other: share of Chk1 input pulled down: stronger; reference about 1%
[1]; reference: pT73 peptide, sites S80
  other: share of Chk1 input pulled down: same; reference about 7%

## YFP-Flag-His6 (YFH)-tagged Chk1 (from UniProt P34208 1-496) (enzyme)
[2]
  percent of input pulled down (% of the input): > 5
[3]
  percent of input pulled down (% of the input): 7
[4]
  percent of input pulled down (% of the input): 7
[5]
  percent of input pulled down (% of the input): < 0.08
[6]
  percent of input pulled down (% of the input): 1

B1: Hta1(120–132-pS129) peptide (peptide, UniProt P04909 120-132, looked up)
peptide: KTSGRTGKP[pS]QEL
notes: Histone H2A Hta1, S. pombe, residues 120-132; also called γH2A peptide; phosphorylated histone H2A peptide
[7]
  binding result: binds
